The target in this experiment is sfGFP^204SCO (Aequorea victoria) [GFP: P42212]. Put plainly: FRET or BRET; steady state emission of the covalently SPAAC-linked GFVen^204 dimer, excitation at 450 nm; relative efficiency from donor and acceptor intensities (Equation 3) after deconvolution.

Consider “Venus^204azF (from UniProt P42212 2-238) (natural protein)”, for which the FRET efficiency allowing for variation in quantum yield was 85 to 91% and the relative FRET efficiency is 87%.
